Results: article PMC4222680

How the values were obtained:
[1] = target: TDG G199S G199S (human (rs4135113 variant)) (UniProt Q13569); experiment: EMSA; conditions: tetrahydrofuran abasic analog (X, written N) at position 17 of strand 2, opposite A12 of strand 1; 20 mM HEPES pH 7.3, 1 mM EDTA, 10 mM (NH4)2SO4, 1 mM DTT, 0.2% Tween-20, 30 mM KCl; 2 nM DNA, 30 min at room temperature; 6% native PAGE at 4 C
TDG WT (human) = TDG WT (human) (UniProt Q13569); experiment: EMSA; conditions: tetrahydrofuran abasic analog (X, written N) at position 17 of strand 2, opposite A12 of strand 1; 20 mM HEPES pH 7.3, 1 mM EDTA, 10 mM (NH4)2SO4, 1 mM DTT, 0.2% Tween-20, 30 mM KCl; 2 nM DNA, 30 min at room temperature; 6% native PAGE at 4 C
Chain of TDG WT (human) (Q13569 whole entry): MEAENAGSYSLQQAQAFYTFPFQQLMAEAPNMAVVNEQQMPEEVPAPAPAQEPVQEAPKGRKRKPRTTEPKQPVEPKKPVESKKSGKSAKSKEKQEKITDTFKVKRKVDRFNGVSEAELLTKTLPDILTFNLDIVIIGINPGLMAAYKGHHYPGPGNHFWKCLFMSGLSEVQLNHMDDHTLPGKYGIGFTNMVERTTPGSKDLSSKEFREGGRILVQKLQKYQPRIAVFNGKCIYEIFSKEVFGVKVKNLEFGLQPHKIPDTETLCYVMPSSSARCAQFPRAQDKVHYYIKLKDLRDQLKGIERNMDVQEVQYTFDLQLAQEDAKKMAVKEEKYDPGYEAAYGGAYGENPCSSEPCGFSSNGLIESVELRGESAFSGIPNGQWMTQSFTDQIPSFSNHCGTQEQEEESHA

Chain of TDG G199S G199S (human (rs4135113 variant)) (Q13569 whole entry G199S): as the sequence (Q13569 whole entry) above, with G199S counted along it

## CAGCTCTGTACATGAGCAGTGGTGACAC / GTGTCACCACTGCTCANGTACAGAGCTG [28-mer THF:A]
[1]
  Kd: 35 nM
TDG WT (human)
  Kd: 153 nM
